{"source": "patent US6617117B1", "about": "“MAP kinases: polypeptides, polynucleotides and uses thereof” (Medical Research Council, priority 1996, dated 2003)", "type_in_all_cases": "biochemical", "key": {"[1]": {"biological_target": "T1, human SAPK2b (Homo sapiens, UniProt Q15759)", "T1 construct": "a number of SAPK2b clones, some of which were full-length; made in house; host or cells: E. coli BL21(DE3)", "T1 sequence (Q15759 whole entry)": "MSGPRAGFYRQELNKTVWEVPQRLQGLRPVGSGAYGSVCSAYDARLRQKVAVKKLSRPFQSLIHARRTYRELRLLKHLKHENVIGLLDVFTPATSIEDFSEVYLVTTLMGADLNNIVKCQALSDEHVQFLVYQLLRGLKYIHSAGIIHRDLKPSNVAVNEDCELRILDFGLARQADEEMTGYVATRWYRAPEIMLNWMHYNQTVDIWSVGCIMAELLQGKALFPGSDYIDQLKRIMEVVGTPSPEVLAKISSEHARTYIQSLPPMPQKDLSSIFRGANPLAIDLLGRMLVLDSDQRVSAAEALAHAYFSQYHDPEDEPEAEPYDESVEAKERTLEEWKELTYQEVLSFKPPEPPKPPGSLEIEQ", "test": "Substrate specificity: rate of phosphorylation by SAPK2b (Table 1)", "settings": "substrate 1 μm; SAPK 0.15 U/ml; means ± SEM of six determinations", "procedure": "(§1) Experiments were carried out with the Xenopus homologue of SAPK2a, human SAPK2b and human SAPK4. The SAPKs were activated in vitro (FIG. 7) and phosphorylation of each protein was studied at a SAPK concentration of 0.15 U/ml. The results are presented as means±SEM of six determinations (two separate experiments). The data for rat SAPK3 are taken from Example 4 and Cuenda et al (1997)."}, "[2]": {"biological_target": "T2, SAPK2 (Xenopus homologue) (Xenopus laevis, UniProt P47812)", "T2 construct": "made in house; host or cells: E. coli", "T2 sequence (P47812 whole entry)": "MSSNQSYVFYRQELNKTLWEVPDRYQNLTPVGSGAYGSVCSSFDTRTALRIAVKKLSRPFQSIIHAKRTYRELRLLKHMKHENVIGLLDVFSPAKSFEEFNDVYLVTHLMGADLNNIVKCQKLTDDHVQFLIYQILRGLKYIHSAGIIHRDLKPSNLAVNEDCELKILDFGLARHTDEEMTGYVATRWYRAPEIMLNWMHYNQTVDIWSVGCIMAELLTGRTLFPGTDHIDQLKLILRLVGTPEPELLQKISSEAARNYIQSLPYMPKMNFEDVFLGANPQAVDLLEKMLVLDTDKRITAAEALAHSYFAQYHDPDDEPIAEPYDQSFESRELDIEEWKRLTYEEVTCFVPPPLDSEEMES", "test": "Substrate specificity: rate of phosphorylation by SAPK2 (Table 2)", "settings": "substrate 1 μM; SAPK 0.1 U/ml", "procedure": "(§2) Protein kinase assays. SAPK3 was assayed routinely by the phosphorylation of MBP. […] After 20 min at 30° C.\n(§3) Table 2. Comparison of substrate specificities of SAPK2 and SAPK3. SAPK2 and SAPK3 were activated in vitro (FIG. 15) and phosphorylation of each protein studied at a SAPK concentration of 0.1 U/ml."}, "[3]": {"biological_target": "Xenopus homologue of SAPK2a (Xenopus laevis, UniProt P47812)", "sequence (P47812 whole entry)": "as above", "test": "Substrate specificity: rate of phosphorylation by SAPK2a (Table 1)", "design": "made in house; host or cells: E. coli", "settings": "substrate 1 μm; SAPK 0.15 U/ml; means ± SEM of six determinations", "procedure": "as §1"}, "[4]": {"biological_target": "T3, SAPK4 (Homo sapiens, UniProt O15264)", "T3 sequence (O15264 1-365)": "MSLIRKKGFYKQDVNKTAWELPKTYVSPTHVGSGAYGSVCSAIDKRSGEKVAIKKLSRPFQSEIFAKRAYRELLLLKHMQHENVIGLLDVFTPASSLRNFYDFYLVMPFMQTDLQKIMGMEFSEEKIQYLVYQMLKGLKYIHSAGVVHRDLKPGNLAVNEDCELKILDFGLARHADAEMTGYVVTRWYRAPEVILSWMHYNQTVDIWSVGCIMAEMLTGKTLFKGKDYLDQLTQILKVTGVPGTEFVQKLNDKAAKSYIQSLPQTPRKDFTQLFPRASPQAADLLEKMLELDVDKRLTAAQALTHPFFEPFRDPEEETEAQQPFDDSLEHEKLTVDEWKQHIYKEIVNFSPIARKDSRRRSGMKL", "test": "Substrate specificity: rate of phosphorylation by SAPK4 (Table 1)", "design": "made in house; host or cells: E. coli BL21(DE3)", "settings": "substrate 1 μm; SAPK 0.15 U/ml; means ± SEM of six determinations", "procedure": "as §1\nSAPK4 is assayed routinely by the phosphorylation of MBP. […] After washing and drying the papers (Alessi et al, 1995 Meth. Enzymol. 255, 279-290) ^32P radioactivity incorporated into MBP is measured."}, "[5]": {"biological_target": "T4, rat SAPK3 (Rattus norvegicus, UniProt Q63538)", "T4 construct": "made in house; host or cells: E. coli BL21 (DE3)", "T4 sequence (Q63538 1-367)": "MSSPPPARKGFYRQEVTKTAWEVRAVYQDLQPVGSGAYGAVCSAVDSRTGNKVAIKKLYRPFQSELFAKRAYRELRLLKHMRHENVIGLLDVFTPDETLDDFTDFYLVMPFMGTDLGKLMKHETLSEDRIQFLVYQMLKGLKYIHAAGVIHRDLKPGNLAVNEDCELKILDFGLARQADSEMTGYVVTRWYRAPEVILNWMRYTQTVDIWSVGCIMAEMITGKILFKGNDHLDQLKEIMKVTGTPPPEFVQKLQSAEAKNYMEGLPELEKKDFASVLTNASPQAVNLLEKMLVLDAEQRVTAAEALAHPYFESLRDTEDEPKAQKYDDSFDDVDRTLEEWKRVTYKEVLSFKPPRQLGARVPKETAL", "test": "Substrate specificity: rate of phosphorylation by SAPK3 (Tables 1 and 2)", "procedure": "as §1, §2, §3"}}}
{"substance": "Elk-1: transcription factor activation domain linked to GST, kinase substrate", "values": [{"measurement": "Rates of phosphorylation relative to MBP, SAPK2b", "setting": "[1]", "value": "136 ± 12", "unit": "%"}, {"measurement": "Rate of phosphorylation relative to MBP, SAPK2", "setting": "[2]", "value": "122 ± 22"}, {"measurement": "Rates of phosphorylation relative to MBP, SAPK2a", "setting": "[3]", "value": "90 ± 10", "unit": "%"}, {"measurement": "Rates of phosphorylation relative to MBP, SAPK4", "setting": "[4]", "value": "175 ± 25", "unit": "%"}, {"measurement": "Rate of phosphorylation relative to MBP, SAPK3", "setting": "[5]; substrate 1 μM, SAPK 0.1 U/ml", "value": "181 ± 30"}, {"measurement": "Rates of phosphorylation relative to MBP, SAPK3", "setting": "[5]; substrate 1 μm, rat SAPK3 data taken from Example 4 and Cuenda et al (1997)", "value": "181 ± 30", "unit": "%"}]}
